Measured values reported in patent US20140328858, “LIN28-MEDIATED CONTROL OF LET-7 BIOGENESIS” (Children's Medical Center Corporation, published 2014).
Read-outs that look alike come from different tables or passages of the source.

Experiments:
[1] = tested on: immunopurified Flag-Lin28
Lin28B = target: T1, Lin28B (Homo sapiens, UniProt Q6ZN17 Q6ZN17:2-250); assay: EMSA; 50 mM Tris pH 7.5, 100 mM NaCl, 10 mM bME, RT, 0.5 nM RNA; Kd fitted (Hill) but value not in text; conditions: tags: 6xHis N-terminal, E. coli (pET21); label: 5'-end label (EMSA); hairpin
T1 sequence: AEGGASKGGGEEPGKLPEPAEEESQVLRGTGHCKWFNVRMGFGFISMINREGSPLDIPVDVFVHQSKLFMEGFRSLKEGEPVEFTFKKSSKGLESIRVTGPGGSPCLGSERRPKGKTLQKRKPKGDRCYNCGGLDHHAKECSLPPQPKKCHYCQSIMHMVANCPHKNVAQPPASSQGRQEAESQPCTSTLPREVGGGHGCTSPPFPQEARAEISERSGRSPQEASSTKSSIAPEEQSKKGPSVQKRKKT
Description: (§1) EMSA was performed with pre-let-7g to analyze the relative binding affinities of the two recombinant proteins. Lin28A and Lin28B have apparent Kds of approximately 0.6 nM and 0.5 nM, respectively (FIG. 7B). Both these estimated Kds are much lower than a previously reported for recombinant mouse Lin28A. This difference is likely due to the omission here of nonspecific yeast tRNA competitor used previously in the binding buffer. Piskounova et al., 2008. […] Collectively, these assays reveal that both Lin28 proteins can directly bind to let-7 precursors with high-affinity in vitro.
(§2) Transformed BL21-CodonPlus® Competent bacteria (Stratagene) were grown to an OD600 nm of 0.4-0.6. Expression was induced 100 μM IPTG for 2-3 hours. Cell pellets were resuspended in cold lysis buffer [20 mM imidazole pH 8.0 in PBS, 0.1% Phenylmethyl sulfonyl fluoride (PMSF)] and sonicated. Cleared lysates were incubated with Ni-NTA beads and after 90 min incubation at 4° C. the beads were washed with 80-column-vol. wash buffer [10 mM Tris (pH 7.8), 50 mM imidazole pH 8.0, 500 mM NaCl, 0.1% PMSF). […] Band intensities of scanned gels were quantified using ImageJ software and used to calculate percentage of probe bound. […]

Lin28A = target: T2, Lin28A (Homo sapiens, UniProt Q9H9Z2 Q9H9Z2:2-209); assay: as above; conditions: tags: 6xHis N-terminal, E. coli (pET21); label: 5'-end label (EMSA); hairpin
T2 sequence: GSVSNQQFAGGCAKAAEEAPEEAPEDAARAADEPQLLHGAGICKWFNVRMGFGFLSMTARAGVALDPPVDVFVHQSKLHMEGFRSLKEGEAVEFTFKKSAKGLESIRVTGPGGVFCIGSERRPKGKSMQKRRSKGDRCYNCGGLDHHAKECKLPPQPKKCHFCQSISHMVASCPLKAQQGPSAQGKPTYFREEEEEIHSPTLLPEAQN
Description: as §1, §2

[2] = target: immunopurified Flag-Lin28; remark: listed apart in the source

In the case of “mZcchc11 ΔC2H2 (N-terminal truncation lacking the C2H2 zinc finger)”, the “in vitro uridylation of synthetic pre-let-7 (incorporation of radiolabeled UTP)” value [1] is reported as “Loss of the N-terminal C2H2 domain still allowed for basal activity, but this mutant could no longer support Lin28-enhanced uridylation against pre-let-7”.

B1: pre-let-7g (ssRNA)
RNA: GAGGUAGUAGUUUGUACAGUUUGAGGGUCUAUGAUACCACCCGGUACAGGAGAUAACUGUACAGGCCACUGCCUUGC
B1: binds (Lin28B); binds (Lin28A).

B2: mZcchc11 C326/329A (full-length) (protein)
chain: MEEPKTSKNENHEPKKNIICEESKAVKIISNQTLKPRNDKSEIGTSSLNRNSSKKTKQNDICIEKTEAKSCKVNAASVPGPKDLGLVHRDQSHCKMKKLPNSPMKAQKGSSQTKLEKTPSLQTKAEKVPKSPNLPVKAEKAPCTTAEATTEKALNSQRKEENTPTSQMKLQKTPRSPLEPENVPSLLLKENVKQTESQQTGKKLTSSFVSMDKRKSEALQGEKSALENSSLSQKQQTQTDNIADSDDSASGIEDTADDLSKMKSEESNKENSSEMDYLENATVIDESALTPEQRLGLKQAEERLERDHIFRLEKRSPEYTNCRYLAKLALIHIENIQGAHKHIKEKRHKKNILEKQEESELRSLPSPSSAHLAALSVAVVELAKEQGITDDDLRIRQDIVEEMSKVIMTFLPECSLRLYGSSLTKFALKSSDVNIDIKFPPKMNHPDLLIQVLGILKKSALYIDVESDFHAKVPVVVCKDRKSALLCRVSAGNDMACLTTDLLAALGKVEPVFTPLVLAFRYWAKLCYIDSQTDGGIPSYCFALMVMFFLQQRKPPLLPCLLGSWIEGFDPKRMDDFQLKGIVEEKFVKWEYNSSSATEKNLIADENKAKADEPKDDTKKTETDNQSNAAKAKHGKSPLTLEAPNQVPLGQLWLELLKFYTLDFALEEYVICVRIQDILTRENKNWPKRRIAIEDPFSVKRNVARSLNSQLVYEYVVERFRAAYRYFACPQKKGGNKSTMDPKKKEKGKLSSKKPVKSDCSATNCCILGESAEKIHMERGQPAKHDETEFTSQRCIVDNDSLLVNELGLANHGQDSSSLSTASGGSDLKQKSAEKQGDLTPSETSLKKELSQCICIGTPDGAESAGTDCRSNLEMDSSHQIVCNNVSATSCNCKATEVTSDLVDEDNLPSQELYYVFDKFILTSGKPPTIVCSICKKDGHSKNDCPEDFRKIDLKPLPPMTNRFREILDLVCKRCFDELSPPCSEQHNREQILIGLEKFIQKEYDEKARLCLFGSSKNGFGFRDSDLDICMTLEGHENAEKLNCKEIIENLAKILKRHPGLRNILPITTAKVPIVKFEHRRSGLEGDISLYNTLAQHNTRMLATYAAIDPRVQYLGYTMKVFAKRCDIGDASRGSLSSYAYILMVLYFLQQRKPPVIPVLQEIFDGKQIPQRMVDGWNAFFFDKTEELKKRLPSLGKNTESLGELWLGLLRFYTEEFDFKEYVISIRQKKLLTTFEKQWTSKCIAIEDPFDLNHNLGAGVSRKMTNFIMKAFINGRKLFGTPFYPLIGREAEYFFDSRVLTDGELAPNDRCCRVCGKIGHYMKDCPKRKRLKKKDSEEEKEGNEEEKDSRDLLDSRDLRCFICGDAGHVRRECPEVKMARQRNSSVAAAQLVRNLVNAQQVAGSAQQQSDQSIRTRQSSECSDSPSYSPQPQPFPQNSPQPSALPPPPSQPGSQPKLGPPQQGGQPPHQVQMPLYNFPQSPPAHYSPMHSMGLLPMHPLQIPAPSWPIHGPMLHSAPGSTPSNIGLNDPSIIFAQPAARPMAIPSPSHDGHWPRTVAPNSLVNNGAVGNSEPRFRGLNPPIPWEHAPRHFPLVPASWPYGLHQNFMHQGNPRFQPKPFYAQADRCATRRCRERCPHPPRGNVSE
With B2 the “in vitro uridylation of synthetic pre-let-7 (incorporation of radiolabeled UTP)” value [2] was “this mutant exhibited only basal uridylation activity, as the addition of Lin28 had no impact on its catalysis in vitro”.
